Source: the supplement of paper PMC7877785
± gives the uncertainty stated by the source.

Test: self-splicing fitness, log relative to wild type (ln ratio); higher = more splicing; Tetrahymena group I intron in knt gene, E. coli kanamycin selection, DiMSum; sequences stand for … in CUCUCU…GGAGGGAAAAGUUAUCAGGCAUGCACCUGGUAGCUAGUCUUUAAACCAAUAGAUUGCAUCGGUUUAAAAGGCAAGACCGUCAAAUUGCGGGAAAGGGGUCAACAGCCGUUCAGUACCAAGUCUCAGGGGAAACUUUGAGAUGGCCUUGCAAAGGGUAUGGUAAUAAGCUGACGGACAUGGUCCUAACCACGCAGCCAAGUCCUAAGUCAACAGAUCUUCUGUUGAUAUGGAUGCAGUUCACAGACUAAAUGUCGGUCGGGGAAGAUGUAUUCUUCUCAUAAGAUAUAGUCGGACCUCUCCUUAAUGGGAGCUAGCGGAUGAAGUGAUGCAACACUGGAGCCGCUGGGAACUAAUUUGUAUGCGAAAGUAUAUUGAUUAGUUUUGGAGUACUCGUGGUCG
In short: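 The eight P1ex-region nucleotides of an intron in the knt kanamycin-resistance gene on pET-22b(+) were all randomised and the library put into E. coli BL21(DE3). Six replicate transformations were grown overnight at 37°C or 30°C on LB agar with or without 25 μg/mL kanamycin, together with 100 μg/mL carbenicillin, 50 μM IPTG and 0.2% rhamnose. Colonies were pooled and amplicon-sequenced on an Illumina HiSeq 2500. Fitness from DiMSum is the error-weighted combination of wild-type-normalised replicate fold changes, kanamycin over none.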

Sequence	self-splicing fitness (ln) (30 °C)	self-splicing fitness (ln) (37 °C)
AGCGAGCAAUAUUACGUCAA	-2.95 ± 0.48	-0.741 ± 0.22
AGCGAGCAAUAUUACGUUAU	-3.81 ± 0.36	-0.895 ± 0.16
AGCUAGCAAUAUUACGACGG	-1.66 ± 0.23	-1.43 ± 0.42
AGCUAGCAAUAUUACGACUA	-0.935 ± 0.14	-0.86 ± 0.13
AGCUAGCAAUAUUACGCAGC	–	-0.17 ± 0.24
AGCUAGCAAUAUUACGCAGG	-3.49 ± 0.22	-3.93 ± 0.33
AGCUAGCAAUAUUACGCGAG	-2.38 ± 0.22	-3.12 ± 0.32
AGCUAGCAAUAUUACGCGUC	-4.28 ± 0.36	-2.08 ± 0.23
AGCUAGCAAUAUUACGCUGU	-2.86 ± 0.2	-3.07 ± 0.32
AGCUAGCAAUAUUACGGCUC	-3.32 ± 0.37	-3.06 ± 0.43
AGCUAGCAAUAUUACGGGGU	-2.6 ± 0.16	-2.13 ± 0.18
AGCUAGCAAUAUUACGGUAC	-2.2 ± 0.26	-1.1 ± 0.24
AGCUAGCAAUAUUACGUAAC	-2.01 ± 0.15	-0.993 ± 0.16
AGCUAGCAAUAUUACGUCGA	-2.69 ± 0.2	-1.9 ± 0.14
AGCUAGCAAUAUUACGUCUC	-4.51 ± 0.39	-2.86 ± 0.29
AGCUAGCAAUAUUACGUGAG	-2.57 ± 0.12	-2.28 ± 0.16
AGCUAGCAAUAUUACGUGAU	-3.09 ± 0.15	-1.79 ± 0.15
AGCUAGCAAUAUUACGUGCC	-2.52 ± 0.36	-1.84 ± 0.27
AGCUAGCAAUAUUACGUGGU	-2.52 ± 0.17	-2.18 ± 0.24
AGCUAGCAAUAUUACGUUCG	-2.57 ± 0.14	-2.41 ± 0.23
AGCUAGCAAUAUUACGUUCU	-1.07 ± 0.062	-0.621 ± 0.08
AGCUAGCAAUAUUACGUUGU	-2.56 ± 0.17	-2.32 ± 0.22
AGCUAGCAAUAUUACGUUUA	-2.69 ± 0.14	-1.46 ± 0.098
AGCUAGCAAUAUUACGUUUC	-4.92 ± 0.25	-2.56 ± 0.16
AGGAAGCAAUAUUACGAACU	-0.35 ± 0.097	0.434 ± 0.13

Sequence	self-splicing fitness (ln) (30 °C)	self-splicing fitness (ln) (37 °C)
AGGAAGCAAUAUUACGAAGA	-2.9 ± 0.34	-1.61 ± 0.32
AGGAAGCAAUAUUACGAAUA	-2.74 ± 0.36	-1.11 ± 0.27
AGGAAGCAAUAUUACGAGCU	-0.467 ± 0.082	0.0249 ± 0.1
AGGAAGCAAUAUUACGAUCA	-0.344 ± 0.091	-0.31 ± 0.09
AGGAAGCAAUAUUACGCAGA	-3.5 ± 0.31	-1.33 ± 0.14
AGGAAGCAAUAUUACGCGAC	-2.62 ± 0.45	-0.793 ± 0.31
AGGAAGCAAUAUUACGCUAU	-3.03 ± 0.21	-2.35 ± 0.2
AGGAAGCAAUAUUACGCUCU	-2.56 ± 0.22	-1.99 ± 0.29
AGGAAGCAAUAUUACGGAAA	-2.92 ± 0.23	-2.26 ± 0.18
AGGAAGCAAUAUUACGGACU	-0.293 ± 0.11	-0.668 ± 0.097
AGGAAGCAAUAUUACGUAUA	-1.79 ± 0.17	-2.16 ± 0.24
AGGAAGCAAUAUUACGUUCU	-3.47 ± 0.28	-1.59 ± 0.17
AGGCAGCAAUAUUACGACAG	-1.61 ± 0.18	-1.54 ± 0.23
AGGCAGCAAUAUUACGAGGU	-2.14 ± 0.15	-2.68 ± 0.26
AGGCAGCAAUAUUACGAUGC	-3.17 ± 0.15	-2.8 ± 0.18
AGGCAGCAAUAUUACGCCAA	-0.987 ± 0.25	-0.179 ± 0.25
AGGCAGCAAUAUUACGCCAG	-0.444 ± 0.14	-0.82 ± 0.25
AGGCAGCAAUAUUACGCCUC	-3.08 ± 0.33	–
AGGCAGCAAUAUUACGCGAA	-1.54 ± 0.095	-0.675 ± 0.13
AGGCAGCAAUAUUACGCGGC	-3.85 ± 0.24	-2.39 ± 0.17
AGGCAGCAAUAUUACGCUGU	-3.99 ± 0.16	-3.28 ± 0.2
AGGCAGCAAUAUUACGGAGC	-3.51 ± 0.14	-3.32 ± 0.26
AGGCAGCAAUAUUACGGAGU	-3.02 ± 0.22	-2.09 ± 0.16
AGGCAGCAAUAUUACGGAUA	-1.85 ± 0.22	-2.11 ± 0.22
AGGCAGCAAUAUUACGGCAA	-0.539 ± 0.069	-1.11 ± 0.085

Sequence	self-splicing fitness (ln) (30 °C)	self-splicing fitness (ln) (37 °C)
AGGCAGCAAUAUUACGGCGA	-0.378 ± 0.075	-0.154 ± 0.091
AGGCAGCAAUAUUACGGGGC	-3.89 ± 0.37	-2.07 ± 0.23
AGGCAGCAAUAUUACGGGGG	-3.34 ± 0.21	-2.98 ± 0.23
AGGCAGCAAUAUUACGGUCU	-3.15 ± 0.24	-2.61 ± 0.25
AGGCAGCAAUAUUACGGUUA	-0.809 ± 0.077	0.285 ± 0.08
AGGCAGCAAUAUUACGUAAU	-1.94 ± 0.088	-0.867 ± 0.088
AGGCAGCAAUAUUACGUACU	-0.408 ± 0.079	0.323 ± 0.12
AGGCAGCAAUAUUACGUAUU	-1.41 ± 0.095	-1.22 ± 0.12
AGGCAGCAAUAUUACGUCAU	-1.87 ± 0.058	-1.1 ± 0.077
AGGCAGCAAUAUUACGUCGC	-2.48 ± 0.12	-2.07 ± 0.14
AGGCAGCAAUAUUACGUUAG	-3.85 ± 0.26	-2.14 ± 0.16
AGGGAGCAAUAUUACGAAUU	–	-0.525 ± 0.18
AGGGAGCAAUAUUACGAGCU	-3.49 ± 0.29	–
AGGGAGCAAUAUUACGAUUA	-2.12 ± 0.18	-2.51 ± 0.35
AGGGAGCAAUAUUACGCACG	-2.17 ± 0.49	-0.794 ± 0.39
AGGGAGCAAUAUUACGCGGC	-1.89 ± 0.2	-2.05 ± 0.31
AGGGAGCAAUAUUACGGAGC	-2.84 ± 0.38	-1.95 ± 0.48
AGGGAGCAAUAUUACGGGCG	-4.23 ± 0.32	-2.35 ± 0.25
AGGGAGCAAUAUUACGGGGG	-2.67 ± 0.2	-3.03 ± 0.37
AGGGAGCAAUAUUACGGUCA	-2.38 ± 0.18	-2.08 ± 0.21
AGGGAGCAAUAUUACGUACA	-2.14 ± 0.18	-2.46 ± 0.28
AGGGAGCAAUAUUACGUACG	-3.78 ± 0.4	-2.2 ± 0.42
AGGGAGCAAUAUUACGUAGG	–	-2.14 ± 0.47
AGGGAGCAAUAUUACGUAGU	-3.35 ± 0.23	-2.19 ± 0.35
AGGGAGCAAUAUUACGUAUA	-3.19 ± 0.42	–

Sequence	self-splicing fitness (ln) (30 °C)	self-splicing fitness (ln) (37 °C)
AGGGAGCAAUAUUACGUGCG	-2.99 ± 0.2	-2.4 ± 0.29
AGGGAGCAAUAUUACGUUAG	-3.02 ± 0.2	-3.66 ± 0.37
AGGGAGCAAUAUUACGUUGG	-4.08 ± 0.37	-2.5 ± 0.33
AGGUAGCAAUAUUACGACCC	-2.38 ± 0.047	-1.69 ± 0.064
AGGUAGCAAUAUUACGACUC	-0.66 ± 0.018	-0.19 ± 0.037
AGGUAGCAAUAUUACGACUU	-0.167 ± 0.014	-0.0309 ± 0.034
AGGUAGCAAUAUUACGAUAU	-1.16 ± 0.014	-0.423 ± 0.034
AGGUAGCAAUAUUACGAUUC	-1.1 ± 0.015	-0.359 ± 0.034
AGGUAGCAAUAUUACGAUUU	0.169 ± 0.014	0.0198 ± 0.033
AGGUAGCAAUAUUACGCAGC	-3.808 ± 0.038	-2.67 ± 0.046
AGGUAGCAAUAUUACGCGAA	-1.61 ± 0.017	-0.832 ± 0.035
AGGUAGCAAUAUUACGCGCC	-2.6 ± 0.032	-1.56 ± 0.043
AGGUAGCAAUAUUACGCGUG	-1.485 ± 0.013	-0.784 ± 0.032
AGGUAGCAAUAUUACGCUAU	-3.873 ± 0.037	-3.13 ± 0.047
AGGUAGCAAUAUUACGCUUU	-3.041 ± 0.022	-1.76 ± 0.036
AGGUAGCAAUAUUACGGCAA	-0.557 ± 0.017	-0.339 ± 0.034
AGGUAGCAAUAUUACGGCAU	-0.129 ± 0.014	0.107 ± 0.033
AGGUAGCAAUAUUACGGCCU	-3.7 ± 0.04	-2.6 ± 0.053
AGGUAGCAAUAUUACGGCUU	-0.489 ± 0.015	-0.184 ± 0.034
AGGUAGCAAUAUUACGGGCG	-1.03 ± 0.015	-0.573 ± 0.034
AGGUAGCAAUAUUACGGUCA	-0.279 ± 0.014	0.00808 ± 0.033
AGGUAGCAAUAUUACGGUCC	-0.156 ± 0.017	0.00993 ± 0.035
